Data on 3 molecules can be found in publication PMC4381330, “Identification of a novel selective agonist of PPARγ with no promotion of adipogenesis and less inhibition of osteoblastogenesis” (Scientific Reports, 2015).

No end group written: not given here.

Test [1] addresses T1, GST-fused human PPARγ-LBD (human).
T1 construct: Kit protein, detected through a terbium-labeled anti-GST antibody
Nature of the test: AlphaScreen or HTRF; LanthaScreen TR-FRET coregulator peptide assay; serial concentrations of rosiglitazone with GST-PPARγ-LBD, terbium-labeled anti-GST antibody and fluorescein-labeled peptide, 4 h; 520 nm/495 nm ratio. The following applies: both partners purified.

For test [2], the target named is T1, GST-fused human PPARγ-LBD. Nature of the test: AlphaScreen or HTRF; LanthaScreen TR-FRET coregulator peptide assay; serial concentrations of F12016 with GST-PPARγ-LBD, terbium-labeled anti-GST antibody and fluorescein-labeled peptide, 4 h; coactivator data as percent of the maximum of rosiglitazone. The following applies: both partners purified. A general note: Bead proximity is the source of the signal in Alpha formats.

T1 sequence (P37231 whole entry, the tested form may be a part): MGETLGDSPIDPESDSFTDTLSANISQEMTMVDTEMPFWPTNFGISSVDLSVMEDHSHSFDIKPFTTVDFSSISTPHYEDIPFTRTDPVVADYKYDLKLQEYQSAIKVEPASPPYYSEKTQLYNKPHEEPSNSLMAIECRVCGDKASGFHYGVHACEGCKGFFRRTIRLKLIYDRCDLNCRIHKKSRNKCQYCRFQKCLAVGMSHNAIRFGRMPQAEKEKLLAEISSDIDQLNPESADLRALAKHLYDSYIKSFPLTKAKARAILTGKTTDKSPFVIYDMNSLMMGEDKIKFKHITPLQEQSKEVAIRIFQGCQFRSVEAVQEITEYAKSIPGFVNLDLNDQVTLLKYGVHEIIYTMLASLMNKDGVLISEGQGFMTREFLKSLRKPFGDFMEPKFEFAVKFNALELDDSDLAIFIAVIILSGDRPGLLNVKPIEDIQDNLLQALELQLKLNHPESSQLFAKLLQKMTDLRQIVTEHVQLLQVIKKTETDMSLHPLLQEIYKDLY

EAEEPSLLKKLLLAPANTQ (also: fluorescein label, position not given here) [PPARγ coactivator 1α (PGC-1α) peptide, fluorescein-labeled]: in test [1], the “efficacy (maximum recruitment, % of rosiglitazone), with rosiglitazone” value amounted to 100%. Moreover, in test [2], the “efficacy (maximum recruitment, % of rosiglitazone), with F12016” value was 57%.
For NTKNHPMLMNLLKDNPAQD (also: fluorescein label, position not given here) the same measures were 100% and 17%.
The matching figures for VTLTSPLLVNLLQSDISAG (also: fluorescein label, position not given here) [nuclear receptor coactivator 250 (RAP250) peptide, fluorescein-labeled]: 100% and 25%.
